Laboratory results: patent publication US11306156
Each block holds one substance with its values, some of them ahead of it.

Columns and labels:
[1] = molecular target: tissue factor (TF) antigen (UniProt P13726); assay: SPR, His-captured Fab, TF as analyte, 1:1 fit
[2] = molecular target: tissue factor (TF) antigen (UniProt P13726); assay: SPR, His-captured Fab, TF as analyte; against wild-type D3H44 Fab
[3] = molecular target: tissue factor (TF) antigen (UniProt P13726); assay: SPR (ProteOn XPR36), His-tagged Fab captured on anti-penta His, TF as analyte, 1:1 fit; batch C (+)
[4] = molecular target: tissue factor (TF) antigen (UniProt P13726); assay: SPR (ProteOn XPR36), His-tagged Fab captured on anti-penta His, TF as analyte; against wild-type D3H44 Fab; batch C (+)
[5] = molecular target: tissue factor (TF) antigen (UniProt P13726); assay: SPR, Fab captured on anti-penta-His surface, TF as analyte, 1:1 fit; against wild-type D3H44 Fab
[6] = molecular target: tissue factor (TF) antigen (UniProt P13726); assay: SPR, Fab captured on anti-penta-His surface, TF as analyte, 1:1 fit
[7] = molecular target: tissue factor (TF) antigen (UniProt P13726); assay: SPR as for KD; reference: wild-type D3H44 Fab
[8] = molecular target: tissue factor (TF) antigen (UniProt P13726); assay: SPR, ProteOn XPR36; His-tagged Fab captured on anti-penta-His, TF injected; 1:1 fit
[9] = molecular target: tissue factor (TF) antigen (UniProt P13726); assay: SPR (ProteOn XPR36), Fab captured on anti-penta-His surface, TF as analyte, 1:1 fit
[10] = molecular target: tissue factor (TF) antigen (UniProt P13726); assay: SPR (ProteOn XPR36), Fab captured on anti-penta-His surface, TF as analyte; reference wild-type D3H44 Fab
[11] = molecular target: tissue factor (TF) antigen (UniProt P13726); assay: SPR (ProteOn XPR36): His-tagged Fab captured on anti-penta-His surface, TF as analyte, 1:1 fit; batch C (+)
[12] = molecular target: D3H44 light chain Q124R_Q160K_T178R (Kabat) with N-terminal HA or FLAG tag; assay: LCCA, SPR read-out of light-chain tags; light-chain DNA 1:3 normalized to 1:1; competing light chain m17
[13] = molecular target: D3H44 light chain T178R (Kabat) with N-terminal HA or FLAG tag; assay: as above
[14] = molecular target: D3H44 light chain Q124E_Q160E_T180E (Kabat) with N-terminal HA or FLAG tag; assay: LCCA, SPR read-out of light-chain tags; light-chain DNA 1:3 normalized to 1:1; competing light chain m18
[15] = molecular target: D3H44 light chain Q124E_Q160E_T180E (Kabat) with N-terminal HA or FLAG tag; assay: LCCA, SPR read-out of light-chain tags; light-chain DNA 1:3 normalized to 1:1; competing light chain m20
[16] = molecular target: tissue factor (TF) antigen (UniProt P13726); assay: SPR (ProteOn XPR36), Fab captured on anti-penta-His surface, TF as analyte; reference is the wild-type D3H44 Fab

Kd [1]: 0.28 nM | Change in median values of KD compared to wild type (-(log(KD design)-log(KD wt))) [2]: -0.26 log
Substance: D3H44 Fab heterodimer H1L1 of LCCA Set # 9731 (H1 L143K; L1 Q124E_V133D)

Kd [1]: 0.28 nM | Change in median values of KD compared to wild type (-(log(KD design)-log(KD wt))) [2]: -0.25 log
Substance: D3H44 Fab heterodimer H1L1 of LCCA Set # 9732 and 9733 (H1 L143K; L1 Q124E_V133D_S176L)

Kd [1]: 0.21 nM | Change in median values of KD compared to wild type (-(log(KD design)-log(KD wt))) [2]: -0.12 log
Substance: D3H44 Fab heterodimer H1L1 of LCCA Set # 9071 (H1 F174V; L1 S131T_S176F_T178F)

Kd [3]: 0.11 nM | Change in median values of KD of h1|1 Fab heterodimer compared to wild type (-(log(KD design)-log(KD wt))) [4]: 0.17
Substance: D3H44 Fab heterodimer, H1 Q39R_D146G_Q179K / L1 Q38E_Q124E_Q160E_T180E (H1L1 Fab of LCCA Set # 9822)

Kd [1]: 0.14 nM | Change in median values of KD compared to wild type (-(log(KD design)-log(KD wt))) [2]: 0.06 log
Substance: D3H44 Fab heterodimer H1L1 of LCCA Set # 9052, 9051 and 9050 (H1 A139G_F174V_V190A; L1 S131T_L135F_S176F_T178F)

change in median KD compared to wild type, -(log(KD design)-log(KD wt)) [5]: -0.35 | Kd [6]: 0.35 nM
Substance: D3H44 H1L1 Fab heterodimer of LCCA Set # 10549 (H1 L45P_K145T_Q179E; L1 P44F_S131K)

change in median KD compared to wild type, -(log(KD design)-log(KD wt)) [7]: -0.21 | Kd [8]: 0.25 nM
Substance: D3H44 Fab heterodimer, H1L1 of LCCA Sets # 9567 and 9566 (H1 L124W_L143F; L1 V133A)

Kd [9]: 0.13 nM | Change in median values of KD of h1l1 Fab heterodimer compared to wild type (-(log(KD design)-log(KD wt))) [10]: 0.07
Substance: D3H44 Fab heterodimer H1 L124A / L1 V133W

Kd [1]: 0.17 nM | Change in median values of KD compared to wild type (-(log(KD design)-log(KD wt))) [2]: -0.02 log
Substance: D3H44 Fab heterodimer H1L1 of LCCA Set # 9062 and 9063 (H1 A139W_S188L; L1 F116A_L135V)

Kd [3]: 0.1 nM | Change in median values of KD of h1|1 Fab heterodimer compared to wild type (-(log(KD design)-log(KD wt))) [4]: 0.2
Substance: D3H44 Fab heterodimer, H1 S186R / L1 Q38E_Q124E_Q160E_T180E (H1L1 Fab of LCCA Set # 9905)

Change in median values of KD of h1|1 Fab heterodimer compared to wild type (-(log(KD design)-log(KD wt))) [11]: 0.04 log units | Kd [11]: 0.14 nM
Substance: D3H44 H1L1 Fab heterodimer of LCCA set 9632 (H1 L143E_K145T_Q179D; L1 Q124R_T178R)

change in median KD compared to wild type, -(log(KD design)-log(KD wt)) [7]: -0.28 | Kd [8]: 0.3 nM
Substance: D3H44 Fab heterodimer, H1L1 of LCCA Set # 9568 (H1 L124W_L143F; L1 V133A_S176T_T178L)

change in median KD compared to wild type, -(log(KD design)-log(KD wt)) [5]: -0.09 | Kd [6]: 0.2 nM
Substance: D3H44 H1L1 Fab heterodimer of LCCA Set # 9740 (H1 L143R; L1 Q124E_V133E)

change in median KD compared to wild type, -(log(KD design)-log(KD wt)) [5]: -0.21 | Kd [6]: 0.25 nM
Substance: D3H44 H1L1 Fab heterodimer of LCCA Set # 9742 (H1 L143R; L1 Q124E_V133E_Q160M)

change in median KD compared to wild type, -(log(KD design)-log(KD wt)) [7]: -0.34 | Kd [8]: 0.34 nM
Substance: D3H44 Fab heterodimer, H1L1 of LCCA Sets # 9692, 9696, 9688, 9702 and 9700 (H1 L143E_K145T_Q179E_S188L; L1 Q124R_T178R)

Kd [9]: 0.21 nM | Change in median values of KD of h1l1 Fab heterodimer compared to wild type (-(log(KD design)-log(KD wt))) [10]: -0.13
Substance: D3H44 Fab heterodimer H1 L124W_L143E_K145T_Q179E / L1 Q124R_V133A_S176T_T178R

change in median KD compared to wild type, -(log(KD design)-log(KD wt)) [5]: -0.03 | Kd [6]: 0.17 nM
Substance: D3H44 H1L1 Fab heterodimer of LCCA Set # 9098 (H1 L124A_Q179K; L1 Q124E_V133W_S176T_T178E_T180E)

Kd [9]: 0.15 nM | Change in median values of KD of h1l1 Fab heterodimer compared to wild type (-(log(KD design)-log(KD wt))) [10]: 0.02
Substance: D3H44 Fab heterodimer H1 L124A_S186K / L1 Q124E_V133W_T180E

Kd [3]: 0.18 nM | Change in median values of KD of h1|1 Fab heterodimer compared to wild type (-(log(KD design)-log(KD wt))) [4]: -0.05
Substance: D3H44 Fab heterodimer, H1 Q39E_L143E_K145T / L1 Q38R_Q124R_Q160K_T178R (H1L1 Fab of LCCA Set # 9817)

H2L2:H2L1 normalized median ratio [12]: 13% | H2L2:H2L1 normalized median ratio [13]: 22% | H2L2:H2L1 normalized median ratio [14]: 78% | H2L2:H2L1 normalized median ratio [15]: 87%
Substance: D3H44 Fab heavy chain Q179K (Kabat) with C-terminal ABD2-His6 tag

Kd [3]: 0.12 nM | Change in median values of KD of h1|1 Fab heterodimer compared to wild type (-(log(KD design)-log(KD wt))) [4]: 0.12
Substance: D3H44 Fab heterodimer, H1 L143E_K145T_P175C_Q179E / L1 Q124R_S162C_T178R (H1L1 Fab of LCCA Set # 9613)

Change in median values of KD of h1|1 Fab heterodimer compared to wild type (-(log(KD design)-log(KD wt))) [11]: 0.27 log units | Kd [11]: 0.09 nM
Substance: D3H44 H1L1 Fab heterodimer of LCCA sets 9911, 9909 and 9907 (H1 S188L; L1 WT)

Change in median values of KD of h1|1 Fab heterodimer compared to wild type (-(log(KD design)-log(KD wt))) [11]: 0.34 log units | Kd [11]: 0.07 nM
Substance: D3H44 H1L1 Fab heterodimer of LCCA set 9741 (H1 L143R; L1 Q124E_V133E_Q160F)

Kd [9]: 0.23 nM | Change in median values of KD of h1l1 Fab heterodimer compared to wild type (-(log(KD design)-log(KD wt))) [10]: -0.16
Substance: D3H44 Fab heterodimer H1 L124R_H172T / L1 V133G_N137K_S174R_S176D

Kd [9]: 0.23 nM | Change in median values of KD of h1l1 Fab heterodimer compared to wild type (-(log(KD design)-log(KD wt))) [10]: -0.16
Substance: D3H44 Fab heterodimer H1 L124R_A125R_H172T / L1 V133G_N137K_S174R_S176D

change in median KD compared to wild type, -(log(KD design)-log(KD wt)) [5]: 0.09 | Kd [6]: 0.13 nM
Substance: D3H44 H1L1 Fab heterodimer of LCCA Set # 9111 (H1 L124E_A125S_H172R_K228D; L1 S121K_V133G_S176R)

Change in median values of KD of h1l1 Fab heterodimer compared to wild type (-(log(KD design)-log(KD wt))) [16]: 0.09 | Kd [9]: 0.13 nM
Substance: D3H44 Fab heterodimer H1L1 of LCCA set 9188 (H1 L124E_L143D_K145M; L1 Q124K_V133G_S176R_T178R)

change in median KD compared to wild type, -(log(KD design)-log(KD wt)) [5]: -0.24 | Kd [6]: 0.27 nM
Substance: D3H44 H1L1 Fab heterodimer of LCCA Set # 9559 (H1 L124W_L143E_K145T_Q179E; L1 Q124K_V133A_S176T_T178R)

H1L1:H1L2 normalized median ratio [13]: 89% | H1L1:H1L2 normalized median scalar value ln(r1/f1) [13]: 2.1 | H1L1:H1L2 normalized median ratio [14]: 11%
Substance: D3H44 Fab heavy chain L143D_K145T_Q179E (Kabat) with C-terminal ABD2-His6 tag

Kd [1]: 0.19 nM | Change in median values of KD compared to wild type (-(log(KD design)-log(KD wt))) [2]: -0.09 log
Substance: D3H44 Fab heterodimer H1L1 of LCCA Set # 9099 (H1 L124A_Q179K; L1 Q124E_V133W_S176T_T178L_T180E)

Kd [1]: 0.32 nM | Change in median values of KD compared to wild type (-(log(KD design)-log(KD wt))) [2]: -0.31 log
Substance: D3H44 Fab heterodimer H1L1 of LCCA Set # 9769, 9767, 9763, 9759, 9761, 9760 and 9773 (H1 Q179K; L1 Q124E_Q160E_T180E)

change in median KD compared to wild type, -(log(KD design)-log(KD wt)) [5]: 0.05 | Kd [6]: 0.14 nM
Substance: D3H44 H1L1 Fab heterodimer of LCCA Set # 9054 (H1 A139G_Q179K_V190A; L1 Q124E_L135W_Q160E_T180E)

Kd [9]: 0.29 nM | Change in median values of KD of h1l1 Fab heterodimer compared to wild type (-(log(KD design)-log(KD wt))) [10]: -0.27
Substance: D3H44 Fab heterodimer H1 L45P_L143E_K145T_H172R / L1 P44F_Q124R_Q160K_T178R

Kd [3]: 0.14 nM | Change in median values of KD of h1|1 Fab heterodimer compared to wild type (-(log(KD design)-log(KD wt))) [4]: 0.07
Substance: D3H44 Fab heterodimer, H1 Q39R_S186R / L1 Q38E_Q124E_Q160E_T180E (H1L1 Fab of LCCA Set # 9828)

change in median KD compared to wild type, -(log(KD design)-log(KD wt)) [7]: -0.02 | Kd [8]: 0.16 nM
Substance: D3H44 Fab heterodimer, H1L1 of LCCA Sets # 9057, 9056 and 9055 (H1 A139G_V190A; L1 L135W_S176L)
